# Measured values as given in patent publication US7067277B1, “Chimeric G proteins and uses thereof” (H. Lundbeck A/S, priority 1999, dated 2006).
# Changes are numbered by the printed parent chain.
# T1: r GALR3 (Rattus norvegicus, UniProt O88626)
# T1 sequence (O88626 1-370): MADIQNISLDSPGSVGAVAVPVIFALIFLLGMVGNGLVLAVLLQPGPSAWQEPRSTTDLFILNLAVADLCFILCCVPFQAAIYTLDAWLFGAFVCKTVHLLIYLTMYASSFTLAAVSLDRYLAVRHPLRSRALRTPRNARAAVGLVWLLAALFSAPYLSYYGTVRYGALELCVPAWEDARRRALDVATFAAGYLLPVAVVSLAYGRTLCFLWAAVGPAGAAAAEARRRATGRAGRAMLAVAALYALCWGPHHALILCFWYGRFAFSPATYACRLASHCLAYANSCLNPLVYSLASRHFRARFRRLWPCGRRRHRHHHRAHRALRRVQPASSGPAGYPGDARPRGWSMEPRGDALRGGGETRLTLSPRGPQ
# B1: hGαq/s9: human Gαq with 9 C-terminal amino acids of Gαs (protein)
# chain: MTLESIMACCLSEEAKEARRINDEIERQLRRDKRDARRELKLLLLGTGESGKSTFIKQMRIIHGSGYSDEDKRGFTKLVYQNIFTAMQAMIRAMDTLKIPYKYEHNKAHAQLVREVDVEKVSAFENPYVDAIKSLWNDPGIQECYDRRREYQLSDSTKYYLNDLDRVADPSYLPTQQDVLRVRVPTTGIIEYPFDLQSVIFRMVDVGGQRSERRKWIHCFENVTSIMFLVALSEYDQVLVESDNENRMEESKALFRTIITYPWFQNSSVILFLNKKDLLEEKIMYSHLVDYFPEYDGPQRDAQAAREFILKMFVDLNPDSDKIIYSHFTCATDTENIRFVFAAVKDTILQMHLRQYELL
# B2: human Gαq/i3(5): human Gαq with five C-terminal amino acids of Gαi3 (protein)
# chain: B1 chain with M351L, H352N, R354K, Q355E, Y356C, E357G, L359Y
# B3: C. elegans Gαq/i3(5): C. elegans Gαq with five C-terminal amino acids of Gαi3 (SEQ ID NO: 5) (protein)
# chain: MACCLSEEAREQKRINQEIEKQLQRDKRNARRELKLLLLGTGESGKSTFIKQMRIIHGQGYSEEDKRAHIRLVYQNVFMAIQSMIRAMDTLDIKFGNESEELQEKAAVVREVDFESVTSFEEPYVSYIKELWEDSGIQECYDRRREYQLTDSAKYYLSDLRRLAVPDYLPTEQDILRVRVPTTGIIEYPFDLEQIIFRMVDVGGQRSERRKWIHCFENVTSIMFLVALSEYDQVLVECDNENRMEESKALFRTIITYPWFTNSSVILFLNKKDLLEEKILYSHLADYFPEYDGPPRDPIAAREFILKMFVDLNPDADKIIYSHFTCATDTENIRFVFAAVKDTILQHNLKECGLY
# modifications: C. elegans
# B4: hGαq/s5: human Gαq with 5 C-terminal amino acids of Gαs (protein)
# chain: B1 chain with M351L, H352N, R354K
# B5: cGαq/s21: C. elegans Gαq with C-terminal Gαs tail of 21 amino acids (SEQ ID NO: 4) (protein)
# chain: MACCLSEEAREQKRINQEIEKQLQRDKRNARRELKLLLLGTGESGKSTFIKQMRIIHGQGYSEEDKRAHIRLVYQNVFMAIQSMIRAMDTLDIKFGNESEELQEKAAVVREVDFESVTSFEEPYVSYIKELWEDSGIQECYDRRREYQLTDSAKYYLSDLRRLAVPDYLPTEQDILRVRVPTTGIIEYPFDLEQIIFRMVDVGGQRSERRKWIHCFENVTSIMFLVALSEYDQVLVECDNENRMEESKALFRTIITYPWFTNSSVILFLNKKDLLEEKILYSHLADYFPEYDGPPRDPIAAREFILKMFVDLNPDADKIIYSHFTCATDTENIRRVFNDCRDIIQRMHLRQYELL
# modifications: C. elegans
# B6: dGαq/z5: D. melanogaster Gαq chimera containing the five C-terminal amino acids of human Gαz (SEQ ID NO: 41) (protein)
# chain: MECCLSEEAKEQKRINQEIEKQLRRDKRDARRELKLLLLGTGESGKSTFIKQMRIIHGSGYSDEDKRGYIKLVFQNIFMAMQSMIKAMDMLKISYGQGEHSELADLVMSIDYETVTTFEDPYLNAIKTLWDDAGIQECYDRRREYQLTDSAKYYLKDLDRVAQPAYLPTEQDILRVRVPTTGIIEYPFDLEEIRFRMVDVGGQRSERRKWIHCFENVTSIIFLVALSEYDQILFESDNENRMEESKALFRTIITYPWFQNSSVILFLNKKDLLEEKIMYSHLVDYFPEYDGPQRDAITAREFILRMFVDLNPDSEKIIYSHFTCATDTENIRFVFAAVKDTILQSNLKYIGLC
# modifications: Drosophila melanogaster
# What was measured:
# Test in all cases: Calcium mobilization (FLIPR, Fluo-3) in transfected COS-7 cells
# Assay type in all cases: cell-based
# h D5 = h D5 (Homo sapiens, UniProt P21918); settings: h D5 + chimera in COS-7; agonist DA, max 100 μM
# Description: (§1) COS-7 cells were cultured in 225 cm^2 flasks in Dulbecco's Modified Eagle Medium (DMEM) with supplements (10% bovine calf serum, 4 mM glutamine, 100 units/ml penicillin and 100 μg/ml streptomycin) at 37° C., 5% CO2. Stock plates of COS-7 cells were trypsinized and split 1:6 every 3–4 days.
# (§2) GPCR and chimeric G protein cDNAs were transiently transfected into COS-7 cells in 150 cm^2 flasks by the DEAE-dextran method (Cullen, 1987), using a total of 20 μg of DNA/˜7×10^6 cells. For evaluating the function of a single chimeric G protein, the standard cDNA transfection ratio was 1:1 (10 μg GPCR cDNA and 10 μg chimeric G protein cDNA). For evaluating the function of a mixture of chimeric G proteins, the standard cDNA transfection ratio was 8:1:1 (16 μg GPCR cDNA, 2 μg Gαq/z cDNA, 2 μg Gαq/s cDNA).
# (§3) Twenty four hours after transient transfection, COS-7 cells were seeded into 96-well black wall microtiter plates coated with poly-D-lysine for assay the following day. Just prior to assay, culture medium was aspirated and cells were dye-loaded with 4 μM Fluo-3/0.01% pluronic acid in assay buffer composed of Hank's Balanced Salt Solution (138 mM NaCl, 5 mM KCl, 1.3 mM CaCl2, 0.5 mM MgCl2, 0.4 mM MgSO4, 0.3 mM KH2PO4, 0.3 mM Na2HPO4, 5.6 mM glucose) plus 20 mM HEPES (pH 7.4), 0.1% BSA and 2.5 mM probenicid (100 μl/well) for 1 hour in 5% CO2 at 37° C. After excess dye was discarded, cells were washed in assay buffer and layered with a final volume equal to 100 μl/well. Basal fluorescence was monitored in a fluorometric imaging plate reader (FLIPR™, Molecular Devices) with an excitation wavelength of 488 nm and an emission range of 500 to 560 nm. Laser excitation energy was adjusted so that basal fluorescence readings were approximately 10,000 relative fluorescent units. Cells were stimulated with agonists diluted in assay buffer (50 μl), and relative fluorescent units were measured at defined intervals (exposure=0.4 sec) over a 3 min period at room temperature. Maximum change in fluorescence was calculated for each well. Concentration-response curves derived from the maximum change in fluorescence were analyzed by nonlinear regression (Hill equation).
# h 5HT7 = h 5HT7 (Homo sapiens, UniProt P34969); settings: h 5HT7 + chimera in COS-7; agonist 5HT, max 100 μM
# Description: as §1, §2, §3
# h β2 adr = h β2 adr (Homo sapiens, UniProt P07550); settings: h β2 adr + chimera in COS-7; agonist NE, max 100 μM
# Description: as §1, §2, §3
# h 5HT6 = h 5HT6 (Homo sapiens, UniProt P50406); settings: h 5HT6 + chimera in COS-7; agonist 5HT, max 100 μM
# Description: as §1, §2, §3
# h 5HT4 = h 5HT4 (Homo sapiens, UniProt Q13639); settings: h 5HT4 + chimera in COS-7; agonist 5HT, max 100 μM
# Description: as §1, §2, §3
# h GLP-1 = h GLP-1 (Homo sapiens, UniProt P43220); settings: h GLP-1 + chimera in COS-7; agonist GLP-1, max 10 μM
# Description: as §1, §2, §3
# h D1 = biological target: T2, h D1 (Homo sapiens, UniProt P21728)
# T2 construct: expressed in transfected cells; host or cells: COS-7
# Description: as §1
# For evaluating the function of a single chimeric G protein, the standard cDNA transfection ratio was 1:1 (10 μg GPCR cDNA and 10 μg chimeric G protein cDNA). For evaluating the function of a mixture of chimeric G proteins, the standard cDNA transfection ratio was 8:1:1 (16 μg GPCR cDNA, 2 μg Gαq/z cDNA, 2 μg Gαq/s cDNA).
# as §3, with “Just prior to assay, culture medium was aspirated and cells were dye-loaded with 4 μM Fluo-3/0.01% pluronic acid in assay buffer composed of Hank's Balanced Salt Solution (138 mM NaCl, 5 mM KCl, 1.3 mM CaCl2, 0.5 mM MgCl2, 0.4 mM MgSO4, 0.3 mM KH2PO4, 0.3 mM Na2HPO4, 5.6 mM glucose) plus 20 mM HEPES (pH 7.4), 0.1% BSA and 2.5 mM probenicid (100 μl/well) for 1 hour in 5% CO2 at 37° C.” left out
# r GALR3 = biological target: T1, r GALR3; settings: COS-7 cells transfected with the rat GALR3 receptor; n=4
# Description: as §1, §2, §3
# [1] = h D1 + chimera in COS-7, agonist DA, max 100 μM
# Sequence of h 5HT6 (P50406 whole entry): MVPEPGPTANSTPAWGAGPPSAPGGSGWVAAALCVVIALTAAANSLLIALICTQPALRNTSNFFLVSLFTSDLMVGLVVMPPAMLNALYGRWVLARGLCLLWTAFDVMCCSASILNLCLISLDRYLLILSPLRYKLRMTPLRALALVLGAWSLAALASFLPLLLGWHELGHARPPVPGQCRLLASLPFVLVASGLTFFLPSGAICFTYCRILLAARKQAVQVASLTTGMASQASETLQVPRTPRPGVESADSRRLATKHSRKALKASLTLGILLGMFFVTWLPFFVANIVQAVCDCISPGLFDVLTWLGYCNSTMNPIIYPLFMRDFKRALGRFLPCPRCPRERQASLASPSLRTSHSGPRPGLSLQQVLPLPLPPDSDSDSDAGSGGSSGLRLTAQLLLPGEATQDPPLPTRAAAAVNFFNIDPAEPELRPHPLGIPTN
# Sequence of h 5HT4 (Q13639 whole entry): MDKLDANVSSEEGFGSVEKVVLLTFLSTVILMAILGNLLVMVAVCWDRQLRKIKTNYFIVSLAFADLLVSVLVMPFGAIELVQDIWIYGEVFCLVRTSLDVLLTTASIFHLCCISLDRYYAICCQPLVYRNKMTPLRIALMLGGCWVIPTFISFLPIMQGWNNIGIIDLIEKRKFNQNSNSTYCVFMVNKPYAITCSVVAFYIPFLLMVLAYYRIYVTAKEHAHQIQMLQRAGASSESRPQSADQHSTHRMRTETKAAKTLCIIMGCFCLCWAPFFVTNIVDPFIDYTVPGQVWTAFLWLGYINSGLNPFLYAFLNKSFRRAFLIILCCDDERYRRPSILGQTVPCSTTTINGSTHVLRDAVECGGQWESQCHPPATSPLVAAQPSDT
# Sequence of h 5HT7 (P34969 whole entry): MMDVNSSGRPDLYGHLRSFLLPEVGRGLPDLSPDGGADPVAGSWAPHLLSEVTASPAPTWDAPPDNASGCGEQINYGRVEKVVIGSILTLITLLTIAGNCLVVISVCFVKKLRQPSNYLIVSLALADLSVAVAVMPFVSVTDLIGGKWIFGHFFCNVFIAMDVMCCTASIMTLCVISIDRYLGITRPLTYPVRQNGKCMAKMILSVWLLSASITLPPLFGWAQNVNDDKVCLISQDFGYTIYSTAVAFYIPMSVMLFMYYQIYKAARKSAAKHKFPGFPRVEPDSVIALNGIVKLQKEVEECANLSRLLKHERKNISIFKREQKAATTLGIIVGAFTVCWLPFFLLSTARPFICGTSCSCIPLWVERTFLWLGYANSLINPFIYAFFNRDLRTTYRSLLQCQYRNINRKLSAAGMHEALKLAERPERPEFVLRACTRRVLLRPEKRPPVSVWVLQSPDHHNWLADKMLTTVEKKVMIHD
# Sequence of h GLP-1 (P43220 24-463): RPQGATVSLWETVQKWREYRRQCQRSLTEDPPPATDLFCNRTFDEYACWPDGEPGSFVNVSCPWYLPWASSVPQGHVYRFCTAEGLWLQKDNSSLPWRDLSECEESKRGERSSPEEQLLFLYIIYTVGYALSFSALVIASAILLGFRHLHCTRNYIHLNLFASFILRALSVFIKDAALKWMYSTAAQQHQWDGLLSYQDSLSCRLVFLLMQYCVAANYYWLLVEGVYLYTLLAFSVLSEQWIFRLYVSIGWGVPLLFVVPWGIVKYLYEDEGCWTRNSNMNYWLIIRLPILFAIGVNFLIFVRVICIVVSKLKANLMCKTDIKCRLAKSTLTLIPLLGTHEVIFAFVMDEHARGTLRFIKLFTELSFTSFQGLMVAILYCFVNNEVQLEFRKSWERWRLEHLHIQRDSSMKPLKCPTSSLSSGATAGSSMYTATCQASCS
# T2 sequence (P21728 whole entry): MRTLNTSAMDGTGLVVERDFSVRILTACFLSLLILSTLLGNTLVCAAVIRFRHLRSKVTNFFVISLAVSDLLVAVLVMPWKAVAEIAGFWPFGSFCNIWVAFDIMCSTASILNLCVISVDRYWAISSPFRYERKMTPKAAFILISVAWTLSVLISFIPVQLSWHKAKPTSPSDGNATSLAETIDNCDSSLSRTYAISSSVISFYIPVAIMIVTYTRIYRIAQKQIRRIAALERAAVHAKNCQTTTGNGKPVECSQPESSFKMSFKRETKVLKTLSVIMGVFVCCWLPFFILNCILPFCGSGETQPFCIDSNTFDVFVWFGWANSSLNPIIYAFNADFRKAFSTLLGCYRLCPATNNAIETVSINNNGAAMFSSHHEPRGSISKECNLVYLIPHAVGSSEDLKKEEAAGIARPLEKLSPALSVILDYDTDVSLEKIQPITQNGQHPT
# Sequence of h D5 (P21918 whole entry): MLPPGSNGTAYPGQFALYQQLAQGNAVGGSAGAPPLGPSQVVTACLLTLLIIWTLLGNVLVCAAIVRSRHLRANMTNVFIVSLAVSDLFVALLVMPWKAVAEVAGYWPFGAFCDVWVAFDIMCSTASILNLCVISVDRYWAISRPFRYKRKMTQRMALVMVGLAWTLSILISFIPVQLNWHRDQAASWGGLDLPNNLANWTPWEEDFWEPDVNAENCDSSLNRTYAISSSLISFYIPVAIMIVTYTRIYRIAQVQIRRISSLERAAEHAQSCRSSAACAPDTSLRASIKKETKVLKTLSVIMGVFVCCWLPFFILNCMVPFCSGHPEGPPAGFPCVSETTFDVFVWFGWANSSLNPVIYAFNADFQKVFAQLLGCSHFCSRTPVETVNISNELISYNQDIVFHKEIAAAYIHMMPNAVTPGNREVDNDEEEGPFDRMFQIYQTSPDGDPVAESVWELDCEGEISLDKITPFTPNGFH
Molecule,MAXIMAL SIGNAL (FLUORESCENCE UNITS) (h D5) [fluorescence units],MAXIMAL SIGNAL (FLUORESCENCE UNITS) (h 5HT7) [fluorescence units],MAXIMAL SIGNAL (FLUORESCENCE UNITS) (h β2 adr) [fluorescence units],MAXIMAL SIGNAL (FLUORESCENCE UNITS) (h 5HT6) [fluorescence units],MAXIMAL SIGNAL (FLUORESCENCE UNITS) (h 5HT4) [fluorescence units],MAXIMAL SIGNAL (FLUORESCENCE UNITS) (h GLP-1) [fluorescence units],MAXIMAL SIGNAL (FLUORESCENCE UNITS) (h D1; [1]) [fluorescence units],maximum signal produced by porcine galanin (r GALR3),"MAXIMAL SIGNAL (FLUORESCENCE UNITS) (h D1; human D1 receptors in COS-7, 10 μg chimera cDNA and 10 μg receptor cDNA, 100 μM dopamine, Table 9 parallel comparison, mean of two experiments) [fluorescence units]"
B1,745,0,1439,999,2309,4198,5692,,
B2,,,,,,,,2084 relative fluorescent units,
B3,,,,,,,,2564 relative fluorescent units,
B4,0,0,43,98,1709,189,,,
B5,3385,206,3513,1009,1731,3120,9433,,
B6,,,,,,,,,2149
